Test results taken from patent US20160024487.

Legend:
[1] = target: T1, Lys(Dnp)-ATNATVTPRIVGG-Lys(Abz)
T1 chain: KATNATVTPRIVGGK

[2] = target: T2, Lys(Dnp)-ATNATMMPRIVGG-Lys(Abz)
T2 chain: KATNATMMPRIVGGK

[3] = target: T3, Lys(Dnp)-ATNATLQPRIVGG-Lys(Abz)
T3 chain: KATNATLQPRIVGGK

[4] = target: T4, Lys(Dnp)-ATNATWPPRIVGG-Lys(Abz)
T4 chain: KATNATWPPRIVGGK

[5] = target: T5, Lys(Dnp)-ATNATMKPRIVGG-Lys(Abz)
T5 chain: KATNATMKPRIVGGK

[6] = target: T6, Lys(Dnp)-ATNATMGPRIVGG-Lys(Abz)
T6 chain: KATNATMGPRIVGGK

[7] = target: T7, Lys(Dnp)-ATNATVYPRIVGG-Lys(Abz)
T7 chain: KATNATVYPRIVGGK

[8] = target: T8, Lys(Dnp)-ATNATFGPRIVGG-Lys(Abz)
T8 chain: KATNATFGPRIVGGK

[9] = target: T9, Lys(Dnp)-ATNATPQPRIVGG-Lys(Abz)
T9 chain: KATNATPQPRIVGGK

[10] = target: T10, Lys(Dnp)-ATNATFFPRIVGG-Lys(Abz)
T10 chain: KATNATFFPRIVGGK

[11] = target: T11, Lys(Dnp)-ATNATLGPRIVGG-Lys(Abz)
T11 chain: KATNATLGPRIVGGK

[12] = target: T12, Lys(Dnp)-ATNATRDPRIVGG-Lys(Abz)
T12 chain: KATNATRDPRIVGGK

[13] = target: T13, Lys(Dnp)-ATNATLDPRIVGG-Lys(Abz)
T13 chain: KATNATLDPRIVGGK

[14] = target: T14, Lys(Dnp)-ATNATHMPRIVGG-Lys(Abz)
T14 chain: KATNATHMPRIVGGK

[15] = target: T15, Lys(Dnp)-ATNATPRPRIVGG-Lys(Abz)
T15 chain: KATNATPRPRIVGGK

[16] = target: T16, Lys(Dnp)-ATNATGWPRIVGG-Lys(Abz)
T16 chain: KATNATGWPRIVGGK

[17] = target: T17, Lys(Dnp)-ATNATRAPRIVGG-Lys(Abz)
T17 chain: KATNATRAPRIVGGK

[18] = target: T18, Lys(Dnp)-ATNATFPPRIVGG-Lys(Abz)
T18 chain: KATNATFPPRIVGGK

[19] = target: T19, Lys(Dnp)-ATNATRFPRIVGG-Lys(Abz)
T19 chain: KATNATRFPRIVGGK

[20] = target: T20, Lys(Dnp)-ATNATHIPRIVGG-Lys(Abz)
T20 chain: KATNATHIPRIVGGK

[21] = target: T21, Lys(Dnp)-ATNATTDPRIVGG-Lys(Abz)
T21 chain: KATNATTDPRIVGGK

[22] = target: T22, Lys(Dnp)-ATNATNAPRIVGG-Lys(Abz)
T22 chain: KATNATNAPRIVGGK

[23] = target: T23, Lys(Dnp)-ATNATAQPRIVGG-Lys(Abz)
T23 chain: KATNATAQPRIVGGK

[24] = target: T24, Lys(Dnp)-ATNATGNPRIVGG-Lys(Abz)
T24 chain: KATNATGNPRIVGGK

[25] = target: T25, Lys(Dnp)-ATNATQFPRIVGG-Lys(Abz)
T25 chain: KATNATQFPRIVGGK

[26] = target: T26, Lys(Dnp)-ATNATIEPRIVGG-Lys(Abz)
T26 chain: KATNATIEPRIVGGK

[27] = target: T27, Lys(Dnp)-ATNATRGPRIVGG-Lys(Abz)
T27 chain: KATNATRGPRIVGGK

[28] = target: T28, Lys(Dnp)-ATNATEVPRIVGG-Lys(Abz)
T28 chain: KATNATEVPRIVGGK

[29] = target: T29, Lys(Dnp)-ATNATYHPRIVGG-Lys(Abz)
T29 chain: KATNATYHPRIVGGK

[30] = target: T30, Lys(Dnp)-ATNATWLPRIVGG-Lys(Abz)
T30 chain: KATNATWLPRIVGGK

[31] = target: T31, Lys(Dnp)-ATNATEIPRIVGG-Lys(Abz)
T31 chain: KATNATEIPRIVGGK

[32] = target: T32, Lys(Dnp)-ATNATPAPRIVGG-Lys(Abz)
T32 chain: KATNATPAPRIVGGK

[33] = target: T33, Lys(Dnp)-ATNATFEPRIVGG-Lys(Abz)
T33 chain: KATNATFEPRIVGGK

[34] = target: T34, Lys(Dnp)-ATNATEYPRIVGG-Lys(Abz)
T34 chain: KATNATEYPRIVGGK

[35] = target: T35, Lys(Dnp)-ATNATIPPRIVGG-Lys(Abz)
T35 chain: KATNATIPPRIVGGK

[36] = target: T36, Lys(Dnp)-ATNATMPPRIVGG-Lys(Abz)
T36 chain: KATNATMPPRIVGGK

[37] = target: T37, Lys(Dnp)-ATNATIGPRIVGG-Lys(Abz)
T37 chain: KATNATIGPRIVGGK

[38] = target: T38, Lys(Dnp)-ATNATKSPRIVGG-Lys(Abz)
T38 chain: KATNATKSPRIVGGK

[39] = target: T39, Lys(Dnp)-ATNATILPRIVGG-Lys(Abz)
T39 chain: KATNATILPRIVGGK

[40] = target: T40, Lys(Dnp)-ATNATDMPRIVGG-Lys(Abz)
T40 chain: KATNATDMPRIVGGK

[41] = target: T41, Lys(Dnp)-ATNATASPRIVGG-Lys(Abz)
T41 chain: KATNATASPRIVGGK

B1: Human plasma purified Factor Xa (protein)
chain 1: ANSFLEEMKKGHLERECMEETCSYEEAREVFEDSDKTNEFWNKYKDGDQCETSPCQNQGKCKDGLGEYTCTCLEGFEGKNCELFTRKLCSLDNGDCDQFCHEEQNSVVCSCARGYTLADNGKACIPTGPYPCGKQTLER
chain 2: IVGGQECKDGECPWQALLINEENEGFCGGTILSEFYILTAAHCLYQAKRFKVRVGDRNTEQEEGGEAVHEVEVVIKHNRFTKETYDFDIAVLRLKTPITFRMNVAPACLPERDWAESTLMTQKTGIVSGFGRTHEKGRQSTRLKMLEVPYVDRNSCKLSSSFIITQNMFCAGYDTKQEDACQGDSGGPHVTRFKDTYFVTGIVSWGEGCARKGKYGIYTKVTAFLKWIDRSMKTRGLPKAKSHAPEVITSSPLK
B1 gave an FXa kcat/KM [1] of 68 M⁻¹ s⁻¹, an FXa kcat/KM [2] of 1000 M⁻¹ s⁻¹ and an FXa kcat/KM [3] of 1200 M⁻¹ s⁻¹. The FXa kcat/KM [4] was 17 M⁻¹ s⁻¹, the FXa kcat/KM [5] was 72 M⁻¹ s⁻¹ and the FXa kcat/KM [6] was 54 M⁻¹ s⁻¹. The FXa kcat/KM [7] was 61 M⁻¹ s⁻¹, the FXa kcat/KM [8] was 100 M⁻¹ s⁻¹ and the FXa kcat/KM [9] was 1100 M⁻¹ s⁻¹. It also gave an FXa kcat/KM [10] of 48 M⁻¹ s⁻¹.

B2: Human plasma purified Factor Xa (Molecular Innovations, Inc) (protein)
chain 1: ANSFLEEMKKGHLERECMEETCSYEEAREVFEDSDKTNEFWNKYKDGDQCETSPCQNQGKCKDGLGEYTCTCLEGFEGKNCELFTRKLCSLDNGDCDQFCHEEQNSVVCSCARGYTLADNGKACIPTGPYPCGKQTLER
chain 2: IVGGQECKDGECPWQALLINEENEGFCGGTILSEFYILTAAHCLYQAKRFKVRVGDRNTEQEEGGEAVHEVEVVIKHNRFTKETYDFDIAVLRLKTPITFRMNVAPACLPERDWAESTLMTQKTGIVSGFGRTHEKGRQSTRLKMLEVPYVDRNSCKLSSSFIITQNMFCAGYDTKQEDACQGDSGGPHVTRFKDTYFVTGIVSWGEGCARKGKYGIYTKVTAFLKWIDRSMKTRGLPKAKSHAPEVITSSPLK
B2 gave an FXa kcat/KM [11] of 140 M⁻¹ s⁻¹, an FXa kcat/KM [12] of 1400 M⁻¹ s⁻¹ and an FXa kcat/KM [13] of 1000 M⁻¹ s⁻¹. It also gave an FXa kcat/KM [14] of 270 M⁻¹ s⁻¹, an FXa kcat/KM [15] of 500 M⁻¹ s⁻¹ and an FXa kcat/KM [16] of 82 M⁻¹ s⁻¹. For the same protein, the FXa kcat/KM [17] was 2000 M⁻¹ s⁻¹, the FXa kcat/KM [18] was 6.2 M⁻¹ s⁻¹ and the FXa kcat/KM [19] was 730 M⁻¹ s⁻¹. It also gave an FXa kcat/KM [20] of 78 M⁻¹ s⁻¹, an FXa kcat/KM [21] of 11 M⁻¹ s⁻¹ and an FXa kcat/KM [22] of 17 M⁻¹ s⁻¹. The FXa kcat/KM [23] was 460 M⁻¹ s⁻¹, the FXa kcat/KM [24] was 52 M⁻¹ s⁻¹ and the FXa kcat/KM [25] was 150 M⁻¹ s⁻¹. The FXa kcat/KM [26] was 1300 M⁻¹ s⁻¹, the FXa kcat/KM [27] was 680 M⁻¹ s⁻¹ and the FXa kcat/KM [28] was 24 M⁻¹ s⁻¹. It also gave an FXa kcat/KM [29] of 43 M⁻¹ s⁻¹, an FXa kcat/KM [30] of 460 M⁻¹ s⁻¹ and an FXa kcat/KM [31] of 55 M⁻¹ s⁻¹. For the same protein, the FXa kcat/KM [32] was 170 M⁻¹ s⁻¹, the FXa kcat/KM [33] was 140 M⁻¹ s⁻¹ and the FXa kcat/KM [34] was 15 M⁻¹ s⁻¹. For the same protein, the FXa kcat/KM [35] was 8.5 M⁻¹ s⁻¹, the FXa kcat/KM [36] was 4.1 M⁻¹ s⁻¹ and the FXa kcat/KM [37] was 170 M⁻¹ s⁻¹. For the same protein, the FXa kcat/KM [38] was 84 M⁻¹ s⁻¹, the FXa kcat/KM [39] was 700 M⁻¹ s⁻¹ and the FXa kcat/KM [40] was 11 M⁻¹ s⁻¹. It also gave an FXa kcat/KM [41] of 310 M⁻¹ s⁻¹.
